4 sequences from article PMC2942843 can be followed below.

The series concerns the target T1, CbbR (His6-CbbR) (Acidithiobacillus ferrooxidans ATCC 23270) (UniProt B7JB31).
T1 sequence: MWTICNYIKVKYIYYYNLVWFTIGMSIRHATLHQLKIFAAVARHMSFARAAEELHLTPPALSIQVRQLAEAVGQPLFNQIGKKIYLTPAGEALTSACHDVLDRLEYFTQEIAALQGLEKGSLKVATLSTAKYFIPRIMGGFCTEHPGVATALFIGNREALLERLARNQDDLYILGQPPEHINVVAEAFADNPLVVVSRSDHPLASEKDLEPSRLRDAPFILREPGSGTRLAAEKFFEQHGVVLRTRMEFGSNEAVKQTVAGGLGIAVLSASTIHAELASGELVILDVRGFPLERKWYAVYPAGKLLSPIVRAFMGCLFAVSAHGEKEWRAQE
In words: EMSA. As to conditions: 12 mM HEPES-NaOH pH 7.9, 4 mM Tris-HCl pH 7.9, 1 mM EDTA, 60 mM KCl, 1 mM DTT, 10% glycerol, 5 ug/ul BSA, 2 ug/ul poly(dI-dC), 30 C, 15 min, 20 pmol DNA. Background: A gel shift assay detects complexes by their altered migration in electrophoresis.
For the sequence “TTTGGGGTGGCAGCAAGAAGTCCTCCTTTCCGGTAGTTGGCCCGGCGCGCTCTTGAGGCCGCACATCCGCCCCGCTTGAGCCAATTTTGCCTTTGCGGTGAGCGGGTTTCACTTCGCTTGTGGCGCTTTCCTTTGATATAGTGCGCGCTGTCCCTGTCGCGCTGCGACAGGTCGGCCTAGCTATTGAGGAGCCCAGTGCATGTCCAAAAGTCATCTTTTCACCTCTGAATCCGTTTCC (double strand) [Pcbb4 (cbb4 operon promoter region)]”, the binding result was “no binding”. For the sequence “CATTGAACAGGGTCAGCTCCTGGCCATGGCGGGCGCGCAACACCTTGAGCAGATGATGGCTGGCACCTGCCGGCAGCAAAAAGGGGCCGCTTTCGGGCAGGTCGGAATCGGCGTATAAGTGAATGCGCGGCATAGGTTACGATATCGGGCAGGAGAACACAGGTGGGATTATATCATCGTGGCGCTGGCGCAGGTGGCGCATGATCAAAGACTCCGAT (double strand) [Pcbb3 (cbb3 operon promoter region)]”, the binding entry was “binds”.

Regarding “ACGACGGCGGCAAGCACCGCCAACCACCGAACATCAGACGCGTAGTCACAAACCACCATCACATCAGTGATACGTTATTGAAAAAATAATAACTACTTATTAGCGCTTATGATTCACCCGCACTATAGTTCGATCATCGCTGCAGACGCAGCGATTGCGCCGGGGGCACCGGCGTCGGGCAACTGCATGGAGGTGGCATATGGCCGTCAAGACCTATAACGCGGGTGTGAAGGATTACCGG (double strand) [Pcbb2 (cbb2 operon promoter region)]”, the binding result is given as “binds”.

On to “CGGCAGCGAAGATCTTGAGTTGGTGCAAGGTTGCATGACGGATAGACATGCCAATAGTAAACCATACTAAATTATAATAGTAAATATATTTTACTTTTATATAGTTACAGATCGTCCACAATGCTACCCAAGCATTGGAACCTGGCAGGTGGCTCCAATCACCATCGTCTACCATGACACAAGGAGAGCAAGCATGGCCGTAAAAAAGTATGAGGCCGGAG (double strand) [Pcbb1 (cbb1 operon promoter region)]”, for which the binding entry is reported as “binds”.
